Test [1] addresses T1, Spc97 (S. cerevisiae, UniProt P38863 1-823).
T1 sequence: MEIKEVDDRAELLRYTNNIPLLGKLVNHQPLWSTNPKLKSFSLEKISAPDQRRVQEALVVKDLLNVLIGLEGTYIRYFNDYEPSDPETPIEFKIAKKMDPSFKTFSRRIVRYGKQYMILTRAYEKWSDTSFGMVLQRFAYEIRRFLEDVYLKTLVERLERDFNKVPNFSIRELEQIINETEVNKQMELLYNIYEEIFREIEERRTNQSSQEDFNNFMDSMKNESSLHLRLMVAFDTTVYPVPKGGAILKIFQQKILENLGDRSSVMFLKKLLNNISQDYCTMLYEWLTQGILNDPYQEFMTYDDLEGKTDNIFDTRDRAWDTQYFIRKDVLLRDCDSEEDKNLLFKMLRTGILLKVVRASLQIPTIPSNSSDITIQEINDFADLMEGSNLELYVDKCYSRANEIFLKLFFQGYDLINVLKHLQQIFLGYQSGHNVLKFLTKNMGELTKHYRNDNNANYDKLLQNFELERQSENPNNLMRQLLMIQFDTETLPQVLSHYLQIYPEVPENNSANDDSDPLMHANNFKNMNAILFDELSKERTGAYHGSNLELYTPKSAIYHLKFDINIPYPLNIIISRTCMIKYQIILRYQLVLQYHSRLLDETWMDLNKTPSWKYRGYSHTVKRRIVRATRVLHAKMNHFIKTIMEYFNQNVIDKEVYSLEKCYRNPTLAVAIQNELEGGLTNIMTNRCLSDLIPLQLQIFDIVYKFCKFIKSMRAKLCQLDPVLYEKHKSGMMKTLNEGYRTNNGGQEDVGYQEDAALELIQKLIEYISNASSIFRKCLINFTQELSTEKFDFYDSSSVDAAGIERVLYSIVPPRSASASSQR
The test can be described thus: cross-linking.

Test [2] concerns the target T2, Spc98 (S. cerevisiae, UniProt P53540 1-846).
T2 sequence: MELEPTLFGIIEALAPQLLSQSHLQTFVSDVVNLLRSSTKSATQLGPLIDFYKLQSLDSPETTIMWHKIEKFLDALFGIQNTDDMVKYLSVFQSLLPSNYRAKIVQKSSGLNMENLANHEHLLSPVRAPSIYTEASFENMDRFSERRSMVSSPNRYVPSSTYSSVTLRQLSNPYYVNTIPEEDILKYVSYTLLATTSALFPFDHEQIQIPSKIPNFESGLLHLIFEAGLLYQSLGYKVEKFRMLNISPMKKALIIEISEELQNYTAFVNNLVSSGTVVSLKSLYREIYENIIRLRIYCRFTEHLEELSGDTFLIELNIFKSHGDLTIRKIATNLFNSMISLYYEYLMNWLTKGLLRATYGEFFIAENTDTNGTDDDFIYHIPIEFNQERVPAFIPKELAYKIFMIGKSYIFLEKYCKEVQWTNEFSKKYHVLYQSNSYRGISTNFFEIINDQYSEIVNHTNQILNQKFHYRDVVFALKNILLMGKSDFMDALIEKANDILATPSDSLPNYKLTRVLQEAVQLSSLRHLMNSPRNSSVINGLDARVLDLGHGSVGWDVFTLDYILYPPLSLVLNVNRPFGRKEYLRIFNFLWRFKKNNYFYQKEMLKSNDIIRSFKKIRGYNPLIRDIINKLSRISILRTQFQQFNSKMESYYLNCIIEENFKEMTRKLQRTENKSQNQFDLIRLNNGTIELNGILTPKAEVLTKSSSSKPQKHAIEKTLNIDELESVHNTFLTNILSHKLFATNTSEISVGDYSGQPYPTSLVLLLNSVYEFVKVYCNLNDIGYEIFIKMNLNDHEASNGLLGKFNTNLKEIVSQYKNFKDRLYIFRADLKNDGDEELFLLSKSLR
The test can be described thus: cross-linking.

B1: Spc110^1-401-GST (domain or fragment, S. cerevisiae, UniProt P32380 1-401, looked up)
chain: MDEASHLPNGSLKNMEFTPVGFIKSKRNTTQTQVVSPTKVPNANNGDENEGPVKKRQRRSIDDTIDSTRLFSEASQFDDSFPEIKANIPPSPRSGNVDKSRKRNLIDDLKKDVPMSQPLKEQEVREHQMKKERFDRALESKLLGKRHITYANSDISNKELYINEIKSLKHEIKELRKEKNDTLNNYDTLEEETDDLKNRLQALEKELDAKNKIVNSRKVDDHSGCIEEREQMERKLAELERKLKTVKDQVLELENNSDVQSLKLRSKEDELKNLMNELNELKSNAEEKDTQLEFKKNELRKRTNELNELKIKSDEMDLQLKQKQNESKRLKDELNELETKFSENGSQSSAKENELKMLKNKIAELEEEISTKNSQLIAKEGKLASLMAQLTQLESKLNQRD
Take B1: the binding result in test [1] and in test [2] was “binds” each time.

Source of the values: article doi:10.1101/311027 (bioRxiv, 2018).
